Starred links: 1 amine or outer side, 2 acyl side, 3 side chain; linkers in the order of their positions; H or OH if unused. Positions of bridges follow the written chain, without caps; N, C: chain ends. Non-standard residues stand in square brackets, D forms with d. Chains are numbered I, II in the order given. No end group written: not given here. *: point of attachment. TATA = O=C(CC[*:1])N1CN(C(=O)CC[*:2])CN(C(=O)CC[*:3])C1; Dip = N[C@H](C(=O)O)C(c1ccccc1)c1ccccc1; d1Nal = N[C@H](Cc1cccc2ccccc12)C(=O)O; Hyp = O=C(O)[C@@H]1C[C@@H](O)CN1; hArg = N=C(N)NCCCC[C@H](N)C(=O)O; tBuAla = CC(C)(C)C[C@H](N)C(=O)O; Cba = N[C@@H](CC1CCC1)C(=O)O; dK(PYA) = not defined here; NMeA = CN[C@@H](C)C(=O)O; Nle = CCCC[C@H](N)C(=O)O; Pent4ynoyl = C#CCCC(=O)*; Mpa = O=C(O)CCS
What follows are binders tested against CD137 on Jurkat reporter cells (Promega kit CS196005) (UniProt Q07011) (assay: cell-based or functional assay).
Sequence of CD137 on Jurkat reporter cells (Promega kit CS196005) (Q07011 24-255 limits assumed): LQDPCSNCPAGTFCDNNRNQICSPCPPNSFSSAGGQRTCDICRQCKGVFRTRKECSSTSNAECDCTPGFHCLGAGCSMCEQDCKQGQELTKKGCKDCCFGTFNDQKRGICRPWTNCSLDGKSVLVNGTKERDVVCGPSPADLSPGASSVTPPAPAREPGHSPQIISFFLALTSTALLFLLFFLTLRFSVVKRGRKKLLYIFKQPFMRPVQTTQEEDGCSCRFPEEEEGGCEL

Binder	EC50 (nM), PC3 co-culture [nM]	Emax (fold induction over background), PC3 (fold over background)	Fold Improvement over BCY9173, EC50, PC3 [fold]	Fold Improvement over Emax (BCY9173), PC3 [fold]
BCY13047 (linker I:4-I:11-I:18, II:1-II:8-II:15 via TATA; not fully specified (N-terminus, bridges); reading uncertain; also: two CD137 bicycles per complex (EphA2:CD137 1:2)) peptide 1: A[hArg]DC[Hyp]LVNPLCL[Dip]P[dD]WTC peptide 2: Ac-C[tBuAla]PE[dK(PYA)]PYCFADPY[Nle]CA	0.07	46.4		
BCY13050 (linker I:4-I:11-I:18, II:1-II:8-II:15 via TATA; not fully specified (N-terminus, bridges); also: linker joins chain 1 to two chain 2 copies via PYA triazoles) peptide 1: A[hArg]DC[Hyp][Cba]VNPLCLHP[dD]W[hArg]C peptide 2: Ac-C[tBuAla]PE[dK](Pent4ynoyl)PYCFADPY[Nle]CA	0.09	42.5		
BCY13051 (linker I:4-I:11-I:18, II:1-II:8-II:15 via TATA; not fully specified (N-terminus, bridges); also: linker joins chain 1 to two chain 2 copies via PYA triazoles) peptide 1: A[hArg]DC[Hyp][Cba]VNPLCLEP[dD]WTC peptide 2: Ac-C[tBuAla]PE[dK](Pent4ynoyl)PYCFADPY[Nle]CA	0.21	37		
BCY13052 (linker I:4-I:11-I:18, II:1-II:8-II:15 via TATA (inferred); not fully specified (N-terminus); also: chain 2: linker at dLys(PYA)4 (place not given here by letters), linker N-(acid-PEG3)-N-bis(PEG3-azide) joins N-terminus of chain 1 to dLys(PYA) of chain 2) peptide 1: [dA][hArg]DC[Hyp][Cba]VNPLCLEP[dD]WTC[dA] peptide 2: Ac-C[tBuAla]PE[dK](Pent4ynoyl)PYCFADPY[Nle]CA	0.21	32.9		
BCY13054 (linker I:4-I:11-I:18, II:1-II:8-II:15 via TATA; not fully specified (N-terminus, bridges); also: linker joins chain 1 to two chain 2 copies via PYA triazoles) peptide 1: A[hArg]DC[Hyp]LVNPLCL[Dip]P[dD]W[hArg]C peptide 2: Ac-C[tBuAla]PE[dK](Pent4ynoyl)PYCFADPY[Nle]CA	0.07	36.5		
BCY13138 (linker I:4-I:11-I:18, II:1-II:8-II:15 via TATA (inferred); not fully specified (N-terminus); reading uncertain; also: linker joins chain 1 to two chain 2 copies via PYA triazoles) peptide 1: A[hArg]DC[Hyp]LVNPLCLEP[dD]WTC peptide 2: [Mpa][tBuAla]PE[dK(PYA)]PYCFADPY[Nle]C	0.17	32.6		
BCY13139 (linker I:4-I:11-I:18, II:1-II:8-II:15 via TATA; not fully specified (N-terminus); also: linker joins chain 1 to two chain 2 copies via PYA triazoles) peptide 1: A[hArg]DC[Hyp]LVNPLCLHP[dD]W[hArg]C peptide 2: [Mpa][tBuAla]EE[dK](Pent4ynoyl)PYCFADPY[Nle]C	0.16	43.8		
BCY13140 (linker I:4-I:11-I:18, II:1-II:8-II:15 via TATA; not fully specified (N-terminus); also: linker joins chain 1 to two chain 2 copies via PYA triazoles) peptide 1: A[hArg]DC[Hyp]LVNPLCLEP[dD]WTC peptide 2: [Mpa][tBuAla]EE[dK](Pent4ynoyl)PYCFADPY[Nle]C	0.12	46.7		
BCY13270 (linker I:4-I:11-I:18, II:1-II:8-II:15 via TATA; not fully specified (N-terminus, bridges); also: linker joins chain 1 to two chain 2 copies via PYA triazoles) peptide 1: A[hArg]DC[Hyp]LVNPLCLHP[d1Nal]W[hArg]C peptide 2: Ac-C[tBuAla]PE[dK](Pent4ynoyl)PYCFADPY[Nle]CA	0.1	42.5		
BCY13275 (linker I:4-I:11-I:18, II:1-II:8-II:15 via TATA; not fully specified (N-terminus, bridges); also: linker joins chain 1 to two chain 2 copies via PYA triazoles) peptide 1: [NMeA][hArg]DC[Hyp]LVNPLCLHP[dD]W[hArg]C peptide 2: Ac-C[tBuAla]PE[dK](Pent4ynoyl)PYCFADPY[Nle]CA	0.08	47.5		
BCY13276 (linker I:4-I:11-I:18, II:1-II:8-II:15 via TATA; not fully specified (N-terminus, bridges); also: linker joins chain 1 to two chain 2 copies via PYA triazoles) peptide 1: [NMeA][hArg]DC[Hyp]LVNPLCLEP[dD]WTC peptide 2: Ac-C[tBuAla]PE[dK](Pent4ynoyl)PYCFADPY[Nle]CA	0.1	50.5		
BCY12723 (linker I:4-I:11-I:18, II:1-II:8-II:15 via TATA; not fully specified (bridges); reading uncertain; also: two CD137 bicycles per complex (EphA2:CD137 1:2)) peptide 1: A[hArg]DC[Hyp]LVNPLCLHP[dD]W[hArg]C peptide 2: Ac-C[tBuAla]EE[dK(PYA)]PYCFADPY[Nle]C			2.2	1.8
BCY12724 (linker I:4-I:11-I:18, II:1-II:8-II:15 via TATA; not fully specified (bridges); reading uncertain; also: two CD137 bicycles per complex (EphA2:CD137 1:2)) peptide 1: A[hArg]DC[Hyp]LVNPLCLHP[dD]W[hArg]C peptide 2: Ac-C[tBuAla]PE[dK(PYA)]PYCFADPY[Nle]C			1.1	1.9
BCY12725 (linker I:4-I:11-I:18, II:1-II:8-II:15 via TATA; not fully specified (bridges); reading uncertain; also: two CD137 bicycles per complex (EphA2:CD137 1:2)) peptide 1: A[hArg]DC[Hyp]LVNPLCLHP[dD]W[hArg]C peptide 2: Ac-C[tBuAla]PE[dK(PYA)]PYCFANPY[Nle]C			0.1	0.7
heterotandem bicyclic peptide complex BCY12491 (linker I:4-I:11-I:18, II:1-II:8-II:15 via TATA (inferred); also: N-(acid-PEG3)-N-bis(PEG3-azide) linker at chain 1 N-terminus, joined to dLys(PYA)4 of two BCY8928 chains (1:2 complex)) peptide 1: A[hArg]DC[Hyp]LVNPLCLHP[dD]W[hArg]C peptide 2: Ac-C[tBuAla]PE[dK](Pent4ynoyl)PYCFADPY[Nle]CA			2.3	1.8
BCY13279 (linker I:1-I:8-I:15, II:1-II:8-II:15 via TATA (inferred); also: linker N-(acid-PEG3)-N-bis(PEG3-azide) on C-terminal dK of chain 1, joins two chain 2 copies via PYA triazoles) peptide 1: Ac-C[Hyp]LVNPLCLHP[dD]W[hArg]CL[dH]G[dK] peptide 2: Ac-C[tBuAla]PE[dK](Pent4ynoyl)PYCFADPY[Nle]CA			4.74	2.08
BCY14050 (BCY8928: Ac-(SEQ ID NO: 11)-A; TATA; linker at dLys(PYA)4; BCY13918: A[HArg]D-(SEQ ID NO: 157); TATA; linker at N-terminus) peptide 1: AXDCXLVNPLCLXPDWXC peptide 2: CXPEXPYCFADPYXCA			2.05	1.91
BCY14051 (BCY8928: Ac-(SEQ ID NO: 11)-A; TATA; linker at dLys(PYA)4; BCY13919: A[HArg]D-(SEQ ID NO: 158); TATA; linker at N-terminus) peptide 1: AXDCXLVNPLCLXPDWXC peptide 2: CXPEXPYCFADPYXCA			3.15	1.88
BCY14052 (BCY8928: Ac-(SEQ ID NO: 11)-A; TATA; linker at dLys(PYA)4; BCY13920: A[HArg]D-(SEQ ID NO: 159); TATA; linker at N-terminus) peptide 1: AXDCXLVNPLCLFPDWXC peptide 2: CXPEXPYCFADPYXCA			4.16	1.89
